Assays:
porcine albumin = porcine albumin (Sus scrofa, UniProt P08835); test: Binding to porcine albumin, in vitro assay; conditions: relative to the reference compound EXA
Experimental: The binding to porcine albumin was determined in an in vitro assay. The values given in Table 1 under the heading “Albumin binding” are relative to the reference compound EXA.

[1] = pH 7.3
Experimental: The lipophilicity of the insulin derivatives relative to human insulin, k″rel, was measured on a LiChrosorb RP18 (5 μm, 250×4 mm) HPLC column by isocratic elution at 40° C. using mixtures of A) 0.1 M sodium phosphate buffer, pH 7.3, containing 10% acetonitrile, and B) 50% acetonitrile in water as eluents. The elution was monitored by following the UV absorption of the eluate at 214 nm. Void time, t0, was found by injecting 0.1 mM sodium nitrate. Retention time for human insulin, thuman, was adjusted to at least 2t0 by varying the ratio between the A and B solutions. k′rel=(tderivative−t0)/(thuman−t0).

[2] = pig, in vivo, sc
Source text: Determination of Disappearance Half-life, T50%, from the Injection Site after Subcutaneous Injection of an Insulin Derivative in Pigs.

Chain of porcine albumin (P08835 25-607): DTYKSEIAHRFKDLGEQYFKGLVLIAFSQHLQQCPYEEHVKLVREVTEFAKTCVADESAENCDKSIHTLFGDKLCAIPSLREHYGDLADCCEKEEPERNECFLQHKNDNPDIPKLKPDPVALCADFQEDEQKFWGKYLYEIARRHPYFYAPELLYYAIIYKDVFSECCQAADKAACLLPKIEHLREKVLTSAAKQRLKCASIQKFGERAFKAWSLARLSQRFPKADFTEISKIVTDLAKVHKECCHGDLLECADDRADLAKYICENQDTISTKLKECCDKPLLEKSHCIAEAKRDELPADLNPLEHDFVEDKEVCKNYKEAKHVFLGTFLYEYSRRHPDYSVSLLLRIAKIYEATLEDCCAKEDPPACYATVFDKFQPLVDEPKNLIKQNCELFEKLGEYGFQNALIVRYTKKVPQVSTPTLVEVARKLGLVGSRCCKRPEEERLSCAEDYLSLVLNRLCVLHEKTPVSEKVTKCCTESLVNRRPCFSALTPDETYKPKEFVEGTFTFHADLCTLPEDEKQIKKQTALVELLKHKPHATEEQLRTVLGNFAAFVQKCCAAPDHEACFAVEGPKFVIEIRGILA

| Substance | Albumin binding (porcine albumin) | Lipophilicity [1] | T50% [2] [h] |
| --- | --- | --- | --- |
| N^εB29-(CO—(CH2)18—COOH) des(B30) Human Insulin [EX3] | 51 | 17 | 18 |
| N^εB29-tetradecanoyl desB30 insulin [EXA, reference compound] | 1 | 113 | 14 |
| N^εB29-(CO—(CH)12—COOH) des(B30) human insulin [EX1] | 0.7 | 1.4 | 5 |
| N^εB29-hexadecanoyl desB30 insulin [EXB, reference compound] | 0.9 | 346 | 12 |
| N^εB29-(CO—(CH2)16—COOH) des(B30) Human Insulin [EX4] | 36 | 7.2 | 17.1 |
| N^εB29-(CO—(CH2)14—COOH) des(B30) Human Insulin [EX2] | 5 | 2.3 | 10 |

Reference: US6451970B1, “Peptide derivatives” (Novo Nordisk A/S, priority 1996, dated 2002)
